Laboratory results as given in PMC7532178, “Interaction of protocadherin-15 with the scaffold protein whirlin supports its anchoring of hair-bundle lateral links in cochlear hair cells” (Scientific Reports, 2020).

B1: whirlin-NTR-PDZ1-Hp1 (aa residues 2-265) [mouse] / PCDH15-CD3 C-terminal peptide (biotin-TTDS-MGPWNSLHIPMTKL) [modified: biotin-TTDS (trioxatridecan-succinamic acid spacer) on the N-terminus; biotin-TTDS (trioxatridecan-succinamic acid … (parent complex)
chain 1: GAMGSTSNAQLDGLSVSSSSTGSLGSAAAAAGGGGGAGLRLLSANVRQLHQALTALLSEPEREQFTHCLNAYHARRNVFDLVRTLRVLLDSPVKRRLLPMLRLVIPRSDQLLFDQYTAEGLYLPATTPYRQPAWAAPDGAGPGEVRLVSLRRAKAHEGLGFSIRGGSEHGVGIYVSLVEPGSLAEKEGLRVGDQILRVNDKSLARVTHAEAVKALKGSKKLVLSVYSAGRIPGGYVTNHIYTWVDPQGRSTSPPSSLPQPHGSTLRQREDD
chain 2: MGPWNSLHIPMTKL
B2: whirlin-NTR-PDZ1-Hp1 (aa residues 2-265) [mouse] / CDH23 C-terminal peptide (biotin-TTDS-VIMESPLEITEL) [modified: biotin-TTDS (trioxatridecan-succinamic acid spacer) on the N-terminus; biotin-TTDS (trioxatridecan-succinamic acid spacer) on … (parent complex)
chain 1: B1 chain 1
chain 2: VIMESPLEITEL
B3: whirlin-NTR-PDZ1-Hp1 (aa residues 2-265) [mouse] / PCDH15-CD2 C-terminal peptide (biotin-TTDS-GANSEQYNTAL) [modified: biotin-TTDS (trioxatridecan-succinamic acid spacer) on the N-terminus; biotin-TTDS (trioxatridecan-succinamic acid … (parent complex)
chain 1: B1 chain 1
chain 2: GANSEQYNTAL
B4: whirlin-NTR-PDZ1-Hp1 (aa residues 2-265) [mouse] / PCDH15-CD1 C-terminal peptide (biotin-TTDS-GIDVQPHSQSTSL) [modified: biotin-TTDS (trioxatridecan-succinamic acid spacer) on the N-terminus; biotin-TTDS (trioxatridecan-succinamic acid … (parent complex)
chain 1: B1 chain 1
chain 2: GIDVQPHSQSTSL

Variants of: B1
Assay: SPR; whirlin construct at 10 μM; peptide immobilized via N-terminal biotin tag; parent: 29; read off a plot

Row | response [% site occupancy] | Variant
1 | ~1.5 | chain 1 GAMGSTSNAQLDGLSVSSSSTGSLGSAAAAAGGGGGAGLRLLSANVRQLHQALTALLSEPEREQFTHCLNAYHARRNVFDLVRTLRVLLDSPVKRRLLPMLRLVIPRSDQLLFDQYTAEGLYLPATTPYRQPAWAAPDGAGPGEVRLVSLRRAKAHEGLGFSIRGGSEHGVGIYVSLVEPGSLAEKEGLRVGDQILRVNDKSLARVTYAEAVKALKGSKKLVLSVYSAGRIPGGYVTNHIYTWVDPQGRSTSPPSSLPQPHGSTLRQREDD [chain 1 H208Y]
2 | ~9.5 | chain 1 GAMGSTSNAQLDGLSVSSSSTGSLGSAAAAAGGGGGAGLRLLSANVRQLHQALTALLSEPEREQFTHCLNAYHARRNVFDLVRTLRVLLDSPVKRRLLPMLRLVIPRSDQLLFDQYTAEGLYLPATTPYRQPAWAAPDGAGPGEVRLVSLRRAKAHEGLAFSIRGGSEHGVGIYVSLVEPGSLAEKEGLRVGDQILRVNDKSLARVTHAEAVKALKGSKKLVLSVYSAGRIPGGYVTNHIYTWVDPQGRSTSPPSSLPQPHGSTLRQREDD [chain 1 G160A]

Variants of: B2
Assay: SPR; whirlin construct at 10 μM; peptide immobilized via N-terminal biotin tag; parent: 11; read off a plot

Row | response [% site occupancy] | Variant
3 | ~1.5 | chain 1 GAMGSTSNAQLDGLSVSSSSTGSLGSAAAAAGGGGGAGLRLLSANVRQLHQALTALLSEPEREQFTHCLNAYHARRNVFDLVRTLRVLLDSPVKRRLLPMLRLVIPRSDQLLFDQYTAEGLYLPATTPYRQPAWAAPDGAGPGEVRLVSLRRAKAHEGLAFSIRGGSEHGVGIYVSLVEPGSLAEKEGLRVGDQILRVNDKSLARVTHAEAVKALKGSKKLVLSVYSAGRIPGGYVTNHIYTWVDPQGRSTSPPSSLPQPHGSTLRQREDD [chain 1 G160A]
4 | ~1 | chain 1 GAMGSTSNAQLDGLSVSSSSTGSLGSAAAAAGGGGGAGLRLLSANVRQLHQALTALLSEPEREQFTHCLNAYHARRNVFDLVRTLRVLLDSPVKRRLLPMLRLVIPRSDQLLFDQYTAEGLYLPATTPYRQPAWAAPDGAGPGEVRLVSLRRAKAHEGLGFSIRGGSEHGVGIYVSLVEPGSLAEKEGLRVGDQILRVNDKSLARVTYAEAVKALKGSKKLVLSVYSAGRIPGGYVTNHIYTWVDPQGRSTSPPSSLPQPHGSTLRQREDD [chain 1 H208Y]

Variants of: B3
Assay: SPR; whirlin construct at 10 μM; peptide immobilized via N-terminal biotin tag; parent: 15; read off a plot

Row | response [% site occupancy] | Variant
5 | ~2.5 | chain 1 GAMGSTSNAQLDGLSVSSSSTGSLGSAAAAAGGGGGAGLRLLSANVRQLHQALTALLSEPEREQFTHCLNAYHARRNVFDLVRTLRVLLDSPVKRRLLPMLRLVIPRSDQLLFDQYTAEGLYLPATTPYRQPAWAAPDGAGPGEVRLVSLRRAKAHEGLAFSIRGGSEHGVGIYVSLVEPGSLAEKEGLRVGDQILRVNDKSLARVTHAEAVKALKGSKKLVLSVYSAGRIPGGYVTNHIYTWVDPQGRSTSPPSSLPQPHGSTLRQREDD [chain 1 G160A]
6 | ~0.5 | chain 1 GAMGSTSNAQLDGLSVSSSSTGSLGSAAAAAGGGGGAGLRLLSANVRQLHQALTALLSEPEREQFTHCLNAYHARRNVFDLVRTLRVLLDSPVKRRLLPMLRLVIPRSDQLLFDQYTAEGLYLPATTPYRQPAWAAPDGAGPGEVRLVSLRRAKAHEGLGFSIRGGSEHGVGIYVSLVEPGSLAEKEGLRVGDQILRVNDKSLARVTYAEAVKALKGSKKLVLSVYSAGRIPGGYVTNHIYTWVDPQGRSTSPPSSLPQPHGSTLRQREDD [chain 1 H208Y]

Variants of: B4
Assay: SPR; whirlin construct at 10 μM; peptide immobilized via N-terminal biotin tag; parent: 23; read off a plot

Row | response [% site occupancy] | Variant
7 | ~2 | chain 1 GAMGSTSNAQLDGLSVSSSSTGSLGSAAAAAGGGGGAGLRLLSANVRQLHQALTALLSEPEREQFTHCLNAYHARRNVFDLVRTLRVLLDSPVKRRLLPMLRLVIPRSDQLLFDQYTAEGLYLPATTPYRQPAWAAPDGAGPGEVRLVSLRRAKAHEGLAFSIRGGSEHGVGIYVSLVEPGSLAEKEGLRVGDQILRVNDKSLARVTHAEAVKALKGSKKLVLSVYSAGRIPGGYVTNHIYTWVDPQGRSTSPPSSLPQPHGSTLRQREDD [chain 1 G160A]
8 | ~-1 | chain 1 GAMGSTSNAQLDGLSVSSSSTGSLGSAAAAAGGGGGAGLRLLSANVRQLHQALTALLSEPEREQFTHCLNAYHARRNVFDLVRTLRVLLDSPVKRRLLPMLRLVIPRSDQLLFDQYTAEGLYLPATTPYRQPAWAAPDGAGPGEVRLVSLRRAKAHEGLGFSIRGGSEHGVGIYVSLVEPGSLAEKEGLRVGDQILRVNDKSLARVTYAEAVKALKGSKKLVLSVYSAGRIPGGYVTNHIYTWVDPQGRSTSPPSSLPQPHGSTLRQREDD [chain 1 H208Y]
